Source: patent publication US20130122005A1 (published 2013)

How the values were obtained:
Experiment in all cases: cell-based or functional assay
human IGF-1 [1] = molecular target: T1, human IGF-1 (human, UniProt P05019 49-118)
human IGF-2 [2] = molecular target: T2, human IGF-2 (human, UniProt P01344 25-91)
human IGF-2 [3] = molecular target: T2, human IGF-2; remark: listed apart in the source
human IGF-1 [4] = molecular target: T1, human IGF-1; remark: listed apart in the source
human IGF-2 [5] = molecular target: T2, human IGF-2; remark: listed apart in the source

T1 sequence (P05019 49-118): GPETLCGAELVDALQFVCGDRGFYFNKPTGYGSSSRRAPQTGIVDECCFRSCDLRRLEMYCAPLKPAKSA
T2 sequence (P01344 25-91 limits assumed): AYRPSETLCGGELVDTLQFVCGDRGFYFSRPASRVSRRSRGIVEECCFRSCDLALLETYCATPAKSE

IC50, IGF-1 induced COLO-205 cell proliferation (human IGF-1 [1]) | IC50, IGF-1 induced MCF7 cell proliferation (human IGF-1 [1]) | IC50, IGF-2 induced COLO 205 cell proliferation (human IGF-2 [2]) | IC50, IGF-2 induced MCF7 cell proliferation (human IGF-2 [2]) | IC50, IGF-2 (100 ng/mL) induced IR-A phosphorylation, cell-based ELISA (human IGF-2 [3]) | IC50, IGF-1 (20 ng/mL) induced IGF-1R phosphorylation, cell-based ELISA (human IGF-1 [4]) | IC50, IGF-2 (100 ng/mL) induced IGF-1R phosphorylation, cell-based ELISA (human IGF-2 [5]) | Binder
135 ng/mL | 24.1 ng/mL | 576 ng/mL | 78.2 ng/mL | – | – | – | antibody 60814 (antibody, human IgG1, lambda, V domains shown) VH: QVELVESGGGLVQPGGSLRLSCAASGFTFSNYWMHWVRQAPGKGLEWVSGISGWSSWTYYADSVKGRFTISRDNSKNTLYLQMNSLRAEDTAVYYCARFGIDAYTKVYFDYWGQGTLVTVSS VL: DIELTQPPSVSVAPGQTARISCSGDNIPLKYVSWYQQKPGQAPVLVIHDDNKRPSGIPERFSGSNSGNTATLTISGTQAEDEADYYCSSWDTLDIFNVFGGGTKLTVLG
217 ng/mL | 54 ng/mL | 101 ng/mL | 40.8 ng/mL | – | – | – | antibody 60819 (antibody, human IgG1, lambda, V domains shown) VH: QVELVESGGGLVQPGGSLRLSCAASGFTFSNYWMHWVRQAPGKGLEWVSGISGWSSWTYYADSVKGRFTISRDNSKNTLYLQMNSLRAEDTAVYYCARFGIDAYTKVYFDYWGQGTLVTVSS VL: DIELTQPPSVSVAPGQTARISCSGDNIPLKYVSWYQQKPGQAPVLVIHDDNKRPSGIPERFSGSNSGNTATLTISGTQAEDEADYYCQSYDYFPKFVVFGGGTKLTVLG
165 ng/mL | 38.6 ng/mL | 632 ng/mL | 81.2 ng/mL | 0.82 µg/mL | 0.09 µg/mL | 1.12 µg/mL | antibody 60833 (antibody, human IgG1, lambda, V domains shown) VH: QVELVESGGGLVQPGGSLRLSCAASGFTFTSYWMSWVRQAPGKGLELVSSITSYGSFTYYADSVKGRFTISRDNSKNTLYLQMNSLRAEDTAVYYCARNMYTHFDSWGQGTLVTVSS VL: DIVLTQPPSVSGAPGQRVTISCSGSSSNIGSNSVSWYQQLPGTAPKLLIYDNSKRPSGVPDRFSGSKSGTSASLAITGLQSEDEADYYCQSRDTYGYYWVFGGGTKLTVLG
